{
  "source": "paper PMC7338525",
  "about": "“Insights into the structure and function of Est3 from the Hansenula polymorpha telomerase”",
  "molecular_target": "T1, HpEst3 (Hansenula polymorpha, UniProt W1QJK4 1-175)",
  "T1 sequence": "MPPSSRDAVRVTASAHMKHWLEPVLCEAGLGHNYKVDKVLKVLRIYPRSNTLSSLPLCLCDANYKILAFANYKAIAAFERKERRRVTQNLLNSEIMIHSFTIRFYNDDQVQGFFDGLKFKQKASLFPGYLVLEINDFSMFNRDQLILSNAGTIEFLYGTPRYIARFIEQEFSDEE",
  "test": "NMR titration (15N-HpEst3); Est3:DNA up to 1:5; non-specific binding, signal broadening without shift changes; NMR: 100 mM KCl, 20 mM potassium phosphate pH 6.5, 0.02% NaN3, 3 mM DTT, 25 C; EMSA: 20 mM potassium phosphate pH 6.5, 100 mM KCl, 3 mM DTT, 8% native PAGE",
  "conditions": "protein: recombinant",
  "data": [
    {"binder": "GGGTGGCGGGGTGGCGGGGTGGCGGGGTGGCG (ssDNA)", "note": "[ssDNA G4 (four telomeric repeats)]", "values": [
      {"measurement": "binding result", "value": "binds"}
    ]}
  ]
}
